In general, stoichiometry N refers to a count of units in the complex or per binding partner.

This assay deals with recombinant mouse PrP, amino acids 23–231 (rmPrP_(23-231)) (mouse). As to the kind of experiment: ELISA. On the technique in general: An ELISA detects its analyte on a solid surface through an enzyme-linked reagent.

POM2 monoclonal antibody (IgG): the stoichiometry N was greater than 2.

Values taken from article PMC2592702.
